Test results reported in US11453702B2, “Bicyclic peptide ligands specific for Nectin-4” (priority 2018, dated 2022).
*1 amine or outer side, *2 acyl side, *3 side chain or, on linkers, in order; H or OH if unused. Where a SMILES comes first, the peptide text is derived from it. Bridges are numbered along the chain shown (N, C = ends). Roman numbers before positions name the chains, in order. [ ]: non-standard residue; d: D form. The star is where a group is joined. ξ: configuration not given here. TATA = O=C(CC[*:1])N1CN(C(=O)CC[*:2])CN(C(=O)CC[*:3])C1; Dolaproine = CO[C@@H]([C@@H]1CCCN1)[C@@H](C)C(=O)O; X1 = CC[C@H](C)C(C(CC(=O)[*:2])OC)N(C)[*:1]; Dil = CC[C@H](C)[C@H](NC)[C@@H](CC(=O)O)OC; 1Nal = N[C@@H](Cc1cccc2ccccc12)C(=O)O; X3 = O=C(CCCC(=O)[*:2])NCCC(=O)[*:1]; PABC = O=C(OCc1ccc(N[*:1])cc1)[*:2]; X4 = C[C@@H](N*)[C@@H](O)c1ccccc1; Hyp = O=C(O)[C@@H]1C[C@@H](O)CN1; hArg = N=C(N)NCCCC[C@H](N)C(=O)O; Cit = NC(=O)NCCC[C@H](N)C(=O)O; X2 = CC(N*)[C@@H](O)c1ccccc1; NMeV = CN[C@H](C(=O)O)C(C)C; ξNMeV = CNC(C(=O)O)C(C)C; ξV = CC(C)C(N)C(=O)O; Sar = CNCC(=O)O

Key:
NCI-H292 xenograft = experiment: In vivo efficacy in NCI-H292 xenograft (NSCLC model) in BALB/c nude mice (Examples 1, 5, 9.5); conditions: Ex 1; all treatment animals during the dosing schedule
Excerpt: The animals will be randomized and treatment will be started when the average tumor volume reaches approximately 158-406 mm^3.
The objective of the research is to evaluate the in vivo anti-tumor efficacy of test articles in treatment of NCI-H292 xenograft in Balb/c nude mice.

[1] = BCY8245 (BT8009) injected at 3 mg/kg; MDA-MB-468 xenograft animals
Description: At various timepoints, animals were euthanized and plasma and tumour taken and snap frozen. Samples were analysed for MMAE.

[2] = tested on: CTG-1771, CTG-1171, CTG-1106 and CTG-0896 PDX models; conditions: all models
Excerpt: To evaluate the antitumor activity of Bicycle Agent in Low Passage Champions TumorGraft Models of Human Breast, Esophageal, and Bladder Cancer in Immunocompromised mice.
Pre-study Animals: When sufficient stock animals reach 1.0-1.5 cm^3, tumors will be harvested for re-implantation into pre-study animals. Pre-study animals will be implanted unilaterally on the left flank with tumor fragments harvested from stock animals. Each animal is implanted from a specific passage lot and documented.
Study Animals: Pre-study tumor volumes are recorded for each experiment beginning seven to ten days after implantation. When tumors reach an average tumor volume of 150-300 mm^3, animals will be matched by tumor volume into treatment or control groups to be used for dosing and dosing initiated on Day 0.

A549 xenograft = experiment: In vivo efficacy in A549 xenograft in Balb/c nude mice (Example 9.1); conditions: mouse
Description: (§1) The major endpoint was to see if the tumor growth could be delayed or mice could be cured. Tumor volume was measured three times weekly in two dimensions using a caliper, and the volume was expressed in mm^3 using the formula: V=0.5 a×b^2 where a and b are the long and short diameters of the tumor, respectively. The tumor size was then used for calculations of T/C value. The T/C value (in percent) is an indication of antitumor effectiveness; T and C are the mean volumes of the treated and control groups, respectively, on a given day.
(§2) TGI was calculated for each group using the formula: TGI (%)=[1−(Ti−T0)/(Vi−V0)]×100; Ti is the average tumor volume of a treatment group on a given day, T0 is the average tumor volume of the treatment group on the day of treatment start, Vi is the average tumor volume of the vehicle control group on the same day with Ti, and V0 is the average tumor volume of the vehicle group on the day of treatment start.
(§3) A one-way ANOVA was performed to compare tumor volume among groups, and when a significant F-statistics (a ratio of treatment variance to the error variance) was obtained, comparisons between groups were carried out with Games-Howell test. All data were analyzed using GraphPad Prism 5.0. P<0.05 was considered to be statistically significant. […]

NCI-H526 xenograft = conditions: 5 mg/kg biw (so in the source)
Description: as §1, §2, §3

HT-1376 xenograft = conditions: 5 mg/kg qw, during the treatment schedule
Description: All data were analyzed using GraphPad Prism 5.0. P<0.05 was considered to be statistically significant.
The objective of the research is to evaluate the in vivo anti-tumor efficacy of test articles in treatment of HT-1376 xenograft in CB17-SCID mice.
The HT-1376 tumor cells were maintained in vitro as a monolayer culture in EMEM medium supplemented with 10% heat inactivated fetal bovine serum at 37° C. in an atmosphere of 5% CO2 in air. The tumor cells were routinely subcultured twice weekly by trypsin-EDTA treatment. The cells growing in an exponential growth phase were harvested and counted for tumor inoculation.
Each mouse was inoculated subcutaneously at the right flank with HT-1376 tumor cells (5×10^6) in 0.2 ml of PBS with matrigel (1:1) for tumor development. Animals were randomized when the average tumor volume reached 153-164 mm^3. The test article administration and the animal numbers in each group were shown in the experimental design table.
The HT-1376 tumor cells will be maintained in EMEM medium supplemented with 10% heat inactivated fetal bovine serum at 37° C. in an atmosphere of 5% CO2 in air. The tumor cells will be routinely subcultured twice weekly. The cells growing in an exponential growth phase will be harvested and counted for tumor inoculation. […]

MDA-MB-468 cell line = experiment: HCS assay, Nectin-4 BDC binding study (Example 11); type: cell-based
Description: HCS assay was used in Nectin-4 BDC binding study. Cells were incubated with test agent and then washed. Detection was by a fluorescent antibody to MMAE.

Row | SMILES | bodyweight (in words) (NCI-H292 xenograft) | retention of MMAE in tumour versus plasma (in words) [1] | tolerability compared with Docetaxel (in words) [2] | bodyweight (in words) (A549 xenograft) | animal bodyweight loss (NCI-H526 xenograft) | animal bodyweight loss (HT-1376 xenograft) | binding affinity (Kd) on MDA-MB-468 cell line (in words) (MDA-MB-468 cell line) | retention on the cells (in words) (MDA-MB-468 cell line; MDA-MB-468 cells, detection by fluorescent antibody to MMAE)
1 | CC[C@H](C)C(C(CC(=O)N1CCC[C@H]1[C@H](OC)[C@@H](C)C(=O)NC(C)[C@@H](O)c1ccccc1)OC)N(C)C(=O)[C@@H](NC(=O)C(C(C)C)N(C)C(=O)OCc1ccc(NC(=O)[C@H](CCCNC(N)=O)NC(=O)C(NC(=O)CCCC(=O)NCCC(=O)N(C)CC(=O)N(C)CC(=O)N(C)CC(=O)N(C)CC(=O)N(C)CC(=O)N(C)CC(=O)N(C)CC(=O)N(C)CC(=O)N(C)CC(=O)N(C)CC(=O)N[C@H]2CSCCC(=O)N3CN4CN(C3)C(=O)CCSC[C@H](NC(=O)[C@@H](CC(=O)O)NC(=O)[C@H](Cc3cccc5ccccc35)NC(=O)[C@@H]3CCCN3C2=O)C(=O)N[C@@H](CCSC)C(=O)N[C@@H](CCCCNC(=N)N)C(=O)N[C@@H](CC(=O)O)C(=O)N[C@@H](Cc2c[nH]c3ccccc23)C(=O)N[C@@H](CO)C(=O)N[C@@H]([C@@H](C)O)C(=O)N2CCC[C@H]2C(=O)N2C[C@H](O)C[C@H]2C(=O)N[C@@H](Cc2c[nH]c3ccccc23)C(=O)N[C@H](C(N)=O)CSCCC4=O)C(C)C)cc1)C(C)C (stereo partly drawn) [BCY8245, MMAE-PABC-Cit-Val-Glutaryl-BCY8234] (I: [Sar][Sar][Sar][Sar][Sar][Sar][Sar][Sar][Sar][Sar]CP[1Nal][dD]CM[hArg]DWSTP[Hyp]WC-NH2 / II: [ξV][Cit][PABC][ξNMeV]V[X1][Dolaproine]-X2; linker I:11-I:15-I:25 via TATA; linker I:N-II:N via X3) | continued bodyweight loss | MMAE was retained in the tumour longer than in plasma | better tolerated than Docetaxel | maintained the bodyweight well | over 10% | over 10% |  | 
2 | CC[C@H](C)[C@@H]([C@@H](CC(=O)N1CCC[C@H]1[C@H](OC)[C@@H](C)C(=O)N[C@H](C)[C@@H](O)c1ccccc1)OC)N(C)C(=O)[C@@H](NC(=O)[C@@H](NC)C(C)C)C(C)C [MMAE, Monomethyl auristatin E] (H-[NMeV]V[Dil][Dolaproine]-X4) |  |  |  |  |  |  | almost no detectable binding affinity | minimal retention
